Sequences and labels used below:
B1: Apoptosis-associated speck-like protein containing a CARD, residues 114 to 194; numbered along this chain, Q9ULZ3 (parent)
chain: FIDQHRAALIARVTNVEWLLDALYGKVLTDEQYQAVRAEPTNPSKMRKLFSFTPAWNWTCKDLLLQALRESQSYLVEDLER

± gives the uncertainty stated by the source.

In this series the parent is B1. Put plainly: abundance fitness (aPCA) (normalised: wild type 0, dead -1); higher = more abundant; growth selection in yeast, the domain comes from the species named. As to conditions: Homo sapiens.
Regarding FIYQHRAALIARVTNVEWLLDALYGKVLTDEQYQAVRAEPTNPSKMRKLFSFTPAWNWTCKDLLLQALRESQSYLVEDLER [D3Y], the abundance fitness was -0.794 ± 0.2. As for FIDLHRAALIARVTNVEWLLDALYGKVLTDEQYQAVRAEPTNPSKMRKLFSFTPAWNWTCKDLLLQALRESQSYLVEDLER [Q4L], the abundance fitness is -0.352 ± 0.059.

Take FIDIHRAALIARVTNVEWLLDALYGKVLTDEQYQAVRAEPTNPSKMRKLFSFTPAWNWTCKDLLLQALRESQSYLVEDLER [Q4I]: the abundance fitness is -0.015 ± 0.12.

On to FIDKHRAALIARVTNVEWLLDALYGKVLTDEQYQAVRAEPTNPSKMRKLFSFTPAWNWTCKDLLLQALRESQSYLVEDLER [Q4K], for which the abundance fitness is -0.111 ± 0.074.

Regarding FIDTHRAALIARVTNVEWLLDALYGKVLTDEQYQAVRAEPTNPSKMRKLFSFTPAWNWTCKDLLLQALRESQSYLVEDLER [Q4T], the abundance fitness amounted to 0.117 ± 0.07. As to FIDMHRAALIARVTNVEWLLDALYGKVLTDEQYQAVRAEPTNPSKMRKLFSFTPAWNWTCKDLLLQALRESQSYLVEDLER [Q4M], the abundance fitness was -0.161 ± 0.079. With FIDWHRAALIARVTNVEWLLDALYGKVLTDEQYQAVRAEPTNPSKMRKLFSFTPAWNWTCKDLLLQALRESQSYLVEDLER [Q4W], the abundance fitness was -0.802 ± 0.15. The result for FIDFHRAALIARVTNVEWLLDALYGKVLTDEQYQAVRAEPTNPSKMRKLFSFTPAWNWTCKDLLLQALRESQSYLVEDLER [Q4F] reads -0.34 ± 0.23; that for FIDDHRAALIARVTNVEWLLDALYGKVLTDEQYQAVRAEPTNPSKMRKLFSFTPAWNWTCKDLLLQALRESQSYLVEDLER [Q4D], -0.432 ± 0.24. For FIDNHRAALIARVTNVEWLLDALYGKVLTDEQYQAVRAEPTNPSKMRKLFSFTPAWNWTCKDLLLQALRESQSYLVEDLER [Q4N] the value was -0.103 ± 0.12; for FIDVHRAALIARVTNVEWLLDALYGKVLTDEQYQAVRAEPTNPSKMRKLFSFTPAWNWTCKDLLLQALRESQSYLVEDLER [Q4V], -0.165 ± 0.063. For FIDGHRAALIARVTNVEWLLDALYGKVLTDEQYQAVRAEPTNPSKMRKLFSFTPAWNWTCKDLLLQALRESQSYLVEDLER [Q4G] the value was -0.685 ± 0.081. FIDRHRAALIARVTNVEWLLDALYGKVLTDEQYQAVRAEPTNPSKMRKLFSFTPAWNWTCKDLLLQALRESQSYLVEDLER [Q4R]: the abundance fitness is -0.19 ± 0.043. Regarding FIDCHRAALIARVTNVEWLLDALYGKVLTDEQYQAVRAEPTNPSKMRKLFSFTPAWNWTCKDLLLQALRESQSYLVEDLER [Q4C], the abundance fitness is -0.43 ± 0.14.

As to FIDPHRAALIARVTNVEWLLDALYGKVLTDEQYQAVRAEPTNPSKMRKLFSFTPAWNWTCKDLLLQALRESQSYLVEDLER [Q4P], the abundance fitness is -1.03 ± 0.18.

On to FIDHHRAALIARVTNVEWLLDALYGKVLTDEQYQAVRAEPTNPSKMRKLFSFTPAWNWTCKDLLLQALRESQSYLVEDLER [Q4H], for which the abundance fitness was -0.315 ± 0.14. For FIDAHRAALIARVTNVEWLLDALYGKVLTDEQYQAVRAEPTNPSKMRKLFSFTPAWNWTCKDLLLQALRESQSYLVEDLER [Q4A] the value was -0.358 ± 0.064; for FIDQDRAALIARVTNVEWLLDALYGKVLTDEQYQAVRAEPTNPSKMRKLFSFTPAWNWTCKDLLLQALRESQSYLVEDLER [H5D], -0.751 ± 0.24. For the variant FIDQIRAALIARVTNVEWLLDALYGKVLTDEQYQAVRAEPTNPSKMRKLFSFTPAWNWTCKDLLLQALRESQSYLVEDLER [H5I], the abundance fitness is -0.057 ± 0.13. For FIDQNRAALIARVTNVEWLLDALYGKVLTDEQYQAVRAEPTNPSKMRKLFSFTPAWNWTCKDLLLQALRESQSYLVEDLER [H5N] the value was -0.157 ± 0.12; for FIDQWRAALIARVTNVEWLLDALYGKVLTDEQYQAVRAEPTNPSKMRKLFSFTPAWNWTCKDLLLQALRESQSYLVEDLER [H5W], -0.381 ± 0.071. Regarding FIDQARAALIARVTNVEWLLDALYGKVLTDEQYQAVRAEPTNPSKMRKLFSFTPAWNWTCKDLLLQALRESQSYLVEDLER [H5A], the abundance fitness was -0.276 ± 0.08.

As to FIDQPRAALIARVTNVEWLLDALYGKVLTDEQYQAVRAEPTNPSKMRKLFSFTPAWNWTCKDLLLQALRESQSYLVEDLER [H5P], the abundance fitness is -0.741 ± 0.13. Take FIDQGRAALIARVTNVEWLLDALYGKVLTDEQYQAVRAEPTNPSKMRKLFSFTPAWNWTCKDLLLQALRESQSYLVEDLER [H5G]: the abundance fitness was -0.833 ± 0.082.

In the case of FIDQVRAALIARVTNVEWLLDALYGKVLTDEQYQAVRAEPTNPSKMRKLFSFTPAWNWTCKDLLLQALRESQSYLVEDLER [H5V], the abundance fitness is -0.147 ± 0.057. For FIDQKRAALIARVTNVEWLLDALYGKVLTDEQYQAVRAEPTNPSKMRKLFSFTPAWNWTCKDLLLQALRESQSYLVEDLER [H5K] the value was -0.605 ± 0.19.

As to FIDQLRAALIARVTNVEWLLDALYGKVLTDEQYQAVRAEPTNPSKMRKLFSFTPAWNWTCKDLLLQALRESQSYLVEDLER [H5L], the abundance fitness was -0.071 ± 0.042. For FIDQRRAALIARVTNVEWLLDALYGKVLTDEQYQAVRAEPTNPSKMRKLFSFTPAWNWTCKDLLLQALRESQSYLVEDLER [H5R] the value was -0.743 ± 0.062. FIDQTRAALIARVTNVEWLLDALYGKVLTDEQYQAVRAEPTNPSKMRKLFSFTPAWNWTCKDLLLQALRESQSYLVEDLER [H5T]: the abundance fitness was -0.602 ± 0.086. For FIDQQRAALIARVTNVEWLLDALYGKVLTDEQYQAVRAEPTNPSKMRKLFSFTPAWNWTCKDLLLQALRESQSYLVEDLER [H5Q] the value was -0.341 ± 0.11. The result for FIDQMRAALIARVTNVEWLLDALYGKVLTDEQYQAVRAEPTNPSKMRKLFSFTPAWNWTCKDLLLQALRESQSYLVEDLER [H5M] reads -0.145 ± 0.075. For FIDQSRAALIARVTNVEWLLDALYGKVLTDEQYQAVRAEPTNPSKMRKLFSFTPAWNWTCKDLLLQALRESQSYLVEDLER [H5S] the value was -0.657 ± 0.09; for FIDQERAALIARVTNVEWLLDALYGKVLTDEQYQAVRAEPTNPSKMRKLFSFTPAWNWTCKDLLLQALRESQSYLVEDLER [H5E], -0.441 ± 0.11; for FIDQFRAALIARVTNVEWLLDALYGKVLTDEQYQAVRAEPTNPSKMRKLFSFTPAWNWTCKDLLLQALRESQSYLVEDLER [H5F], -0.553 ± 0.12.

The record behind these values is the Human Domainome abundance scans (Beltran et al. 2025).
